Each block holds one substance with its values, some of them ahead of it.
Columns and labels:
[1] = target: D3H44 light chain Q38R_Q124R_Q160K_T178R; experiment: SMCA: four chains co-expressed in CHO-3E7, protein A, LC-MS; competing light chain m41
[2] = target: D3H44 light chain F116A_Q124R_L135V_T178R; experiment: SMCA, LC-MS of 4 co-expressed chains; competing light chain m29
[3] = target: D3H44 light chain F116A_Q124R_L135V_T178R; experiment: SMCA, LC-MS; change vs wild-type bispecific; competing light chain m29
[4] = target: D3H44 light chain F116A_Q124R_L135V_T178R; experiment: SMCA, LC-MS; change vs wild-type bispecific; competing light chain m45
[5] = target: D3H44 light chain F116A_Q124R_L135V_T178R; experiment: SMCA: 2 heavy + 2 light chains co-expressed, protein A, LC-MS; competing light chain m41
[6] = target: Trastuzumab light chain Q38E_Q124E_Q160E_T180E; experiment: SMCA: four chains co-expressed in CHO-3E7, protein A, LC-MS; competing light chain m39
[7] = target: D3H44 light chain F116A_V133G_L135V_S176R; experiment: SMCA co-expression, LC-MS; competing light chain m32
[8] = target: D3H44 light chain F116A_V133G_L135V_S176R; experiment: SMCA co-expression, LC-MS; competing light chain m36
[9] = target: D3H44 light chain F116A_V133G_L135V_S176R; experiment: SMCA co-expression, LC-MS; competing light chain m32; estimated change (***)
[10] = target: D3H44 light chain F116A_V133G_L135V_S176R; experiment: SMCA co-expression, LC-MS; competing light chain m36; estimated change (***)
[11] = target: D3H44 light chain F116A_V133G_L135V_S176R; experiment: SMCA: 2 heavy + 2 light chains co-expressed, protein A, LC-MS; competing light chain m58
[12] = target: D3H44 light chain Q124R_T178R; experiment: SMCA, LC-MS of 4 co-expressed chains; competing light chain m27
[13] = target: D3H44 light chain Q124R_T178R; experiment: SMCA, LC-MS; change vs wild-type bispecific; competing light chain m27
[14] = target: D3H44 light chain Q124R_T178R; experiment: SMCA: LC-MS of protein A purified product after co-expression of H1, H2, L1, L2 in CHO-3E7; competing light chain m51
[15] = target: D3H44 light chain Q124E_V133E; experiment: SMCA: four chains co-expressed in CHO-3E7, protein A, LC-MS; competing light chain m35
[16] = target: D3H44 light chain Q124E_V133E; experiment: SMCA: four chains co-expressed in CHO-3E7, protein A, LC-MS; competing light chain m45
[17] = target: cetuximab light chain of SMCA design 9820-9823_1 (trastuzumab/cetuximab bispecific system), Q38R_Q124R_Q160K_T178R; experiment: SMCA, LC-MS after co-expression of the four chains; difference from the wild-type trastuzumab/cetuximab construct at the same DNA ratio
[18] = target: cetuximab light chain of SMCA design 9820-9823_1 (trastuzumab/cetuximab bispecific system), Q38R_Q124R_Q160K_T178R; experiment: SMCA: H1, H2, L1 and L2 co-expressed in CHO-3E7 cells, protein A purification, deglycosylation, LC-MS; competing light chain is the trastuzumab light chain (L1)
[19] = target: tissue factor (TF) antigen (UniProt P13726); experiment: SPR (ProteOn XPR36), Fab captured by His tag on anti-penta-His surface, TF injected as analyte, 1:1 fit; * = estimated from a Fab differing only in the L chain tag
[20] = target: tissue factor (TF) antigen (UniProt P13726); experiment: SPR (ProteOn XPR36), Fab captured by His tag on anti-penta-His surface, TF injected as analyte; against wild-type D3H44 Fab; * = estimated from a Fab differing only in the L chain tag
[21] = target: Cetuximab light chain Q124E_V133W_S176T_T178L_T180E; experiment: SMCA co-expression, LC-MS; competing light chain m2
[22] = target: D3H44 light chain Q124R_V133A_S176T_T178R; experiment: SMCA co-expression, LC-MS; competing light chain m8
[23] = target: D3H44 light chain Q124R_V133A_S176T_T178R; experiment: SMCA co-expression, LC-MS; competing light chain m12
[24] = target: Cetuximab light chain V133G_N137K_S174R_S176R; experiment: SMCA co-expression, LC-MS; competing light chain m24
[25] = target: Cetuximab light chain V133G_N137K_S174R_S176R; experiment: SMCA co-expression, LC-MS; competing light chain m16; estimated change (***)
[26] = target: D3H44 light chain Q124E_Q160E_T178E; experiment: SMCA, LC-MS of 4 co-expressed chains; competing light chain m26
[27] = target: D3H44 light chain Q124E_S176L_T180E; experiment: as above
[28] = target: D3H44 light chain Q124E_Q160E_T178E; experiment: SMCA, LC-MS of 4 co-expressed chains; competing light chain m42
[29] = target: D3H44 light chain Q124E_S176L_T180E; experiment: SMCA, LC-MS; change vs wild-type bispecific; competing light chain m26
[30] = target: D3H44 light chain Q124E_Q160E_T178E; experiment: SMCA, LC-MS; change vs wild-type bispecific; competing light chain m42
[31] = target: D3H44 light chain Q124E_Q160E_T178E; experiment: SMCA, LC-MS; estimated change vs similar wild type (***); competing light chain m26
[32] = target: D3H44 light chain Q124E_S176L_T180E; experiment: SMCA: 2 heavy + 2 light chains co-expressed, protein A, LC-MS; competing light chain m16
[33] = target: D3H44 light chain Q124E_Q160E_T178E; experiment: SMCA: LC-MS of protein A purified product after co-expression of H1, H2, L1, L2 in CHO-3E7; competing light chain m52
[34] = target: D3H44 light chain Q124E_S131T_T178Y_T180E; experiment: as above
D3H44 light chain S131E = experiment: SMCA: LC-MS of protein A purified product after co-expression of H1, H2, L1, L2 in CHO-3E7; competing light chain m53
[35] = target: Cetuximab light chain F116A_V133G_L135V_S176R; experiment: SMCA co-expression, LC-MS; competing light chain m36
[36] = target: Cetuximab light chain F116A_V133G_L135V_S176R; experiment: SMCA co-expression, LC-MS; competing light chain m36; estimated change (***)
[37] = target: D3H44 light chain Q124R_T178R; experiment: SMCA, LC-MS of 4 co-expressed chains; competing light chain m25
[38] = target: D3H44 light chain Q124R_T178R; experiment: SMCA, LC-MS of 4 co-expressed chains; competing light chain m30
[39] = target: D3H44 light chain Q124R_T178R; experiment: SMCA, LC-MS; change vs wild-type bispecific; competing light chain m25
[40] = target: D3H44 light chain Q124R_T178R; experiment: SMCA, LC-MS; change vs wild-type bispecific; competing light chain m30
[41] = target: D3H44 light chain Q124R_T178R; experiment: SMCA: H1, H2, L1, L2 co-expressed in CHO-3E7, protein A, LC-MS; competitor light chain m24
[42] = target: D3H44 light chain Q124R_T178R; experiment: SMCA: H1, H2, L1, L2 co-expressed in CHO-3E7, protein A, LC-MS; competitor light chain m34
[43] = target: Cetuximab light chain Q124R_V133A_S176T_T178R; experiment: SMCA co-expression, LC-MS; competing light chain m12
[44] = target: Cetuximab light chain Q124R_V133A_S176T_T178R; experiment: SMCA co-expression, LC-MS; competing light chain m12; estimated change (***)
[45] = target: trastuzumab light chain of SMCA design 9820-9823_1 (trastuzumab/cetuximab bispecific system), Q38E_Q124E_Q160E_T180E; experiment: SMCA, LC-MS after co-expression of the four chains; difference from the wild-type trastuzumab/cetuximab construct at the same DNA ratio
[46] = target: trastuzumab light chain of SMCA design 9820-9823_1 (trastuzumab/cetuximab bispecific system), Q38E_Q124E_Q160E_T180E

Substance: D3H44 full-length heavy chain Q39E_L143E_K145T_Q179E (from UniProt P0DOX5 2-448)
% H1L1 Pairing (over all H1 species) [1]: 86.6%

Substance: D3H44 heavy chain A139W_L143E_K145T_Q179E (from UniProt P0DOX5 2-448)
% H1L1 Pairing (over all H1 species) [2]: 100%
Change in % H1L1 Pairing (over all H1 species) with respect to wild type [3]: 41.9%
Change in % H1L1 Pairing (over all H1 species) with respect to wild type [4]: 58.1%
% H1L1 Pairing (over all H1 species) [5]: 100%

Substance: Trastuzumab full-length heavy chain Q39R_H172R_Q179K (from UniProt P0DOX5 2-448)
% H2L2 Pairing (over all H2 species) [6]: 100%

Substance: D3H44 heavy chain L124E_A139W (from UniProt P0DOX5 2-448)
% H1L1 Pairing (over all H1 species) [7]: 100%
% H1L1 Pairing (over all H1 species) [8]: 46.8%
Change in % H1L1 Pairing (over all H1 species) with respect to wild type [9]: 43.3%
Change in % H1L1 Pairing (over all H1 species) with respect to wild type [10]: 25.8%
% H1L1 Pairing (over all H1 species) [11]: 100%

Substance: D3H44 heavy chain L143E_K145T_Q179E_S188L (from UniProt P0DOX5 2-448)
% H1L1 Pairing (over all H1 species) [12]: 94.3%
Change in % H1L1 Pairing (over all H1 species) with respect to wild type [13]: 32.4%
% H1L1 Pairing (over all H1 species) [14]: 94.3%

Substance: cetuximab full-length heavy chain of SMCA design 9820-9823_1 (trastuzumab/cetuximab bispecific system), Q39E_L143E_K145T_Q179E
Change in % H2L2 Pairing (over all H2 species) with respect to wild type [17]: 22.7%
% H2L2 Pairing (over all H2 species) [18]: 52.3%

Further lines, results first:

% H1L1 Pairing (over all H1 species) [15]: 97.1%
% H1L1 Pairing (over all H1 species) [16]: 89.2%
Substance: D3H44 full-length heavy chain L143R (from UniProt P0DOX5 2-448)

Kd [19]: 0.14 nM
change in median KD compared to wild type, -(log(KD design)-log(KD wt)) [20]: 0.05 log
Substance: D3H44 H1L1 Fab heterodimer of LCCA Set # 9645 (H1 L143E_K145T_Q179E, L1 Q124K_T178R)

Change in % H2L2 Pairing (over all H2 species) with respect to wild type [21]: 1.7%
Substance: Cetuximab heavy chain L124A_L143F_Q179K

Change in % H1L1 Pairing (over all H1 species) with respect to wild type [22]: 40.4%
% H1L1 Pairing (over all H1 species) [23]: 47.7%
Change in % H1L1 Pairing (over all H1 species) with respect to wild type [23]: 7.1%
Substance: D3H44 heavy chain L124W_L143E_K145T_Q179E (from UniProt P0DOX5 2-448)

% H2L2 Pairing (over all H2 species) [24]: 44%
Change in % H2L2 Pairing (over all H2 species) with respect to wild type [24]: 14.4%
Change in % H2L2 Pairing (over all H2 species) with respect to wild type [25]: 1.6%
Substance: Cetuximab heavy chain L124E_H172T

% H1L1 Pairing (over all H1 species) [26]: 100%
% H1L1 Pairing (over all H1 species) [27]: 100%
% H1L1 Pairing (over all H1 species) [28]: 98.2%
Change in % H1L1 Pairing (over all H1 species) with respect to wild type [29]: 52.5%
Change in % H1L1 Pairing (over all H1 species) with respect to wild type [30]: 60.9%
Change in % H1L1 Pairing (over all H1 species) with respect to wild type [31]: 43.3%
% H1L1 Pairing (over all H1 species) [32]: 100%
% H1L1 Pairing (over all H1 species) [33]: 100%
% H1L1 Pairing (over all H1 species) [34]: 100%
% H1L1 Pairing (over all H1 species) (D3H44 light chain S131E): 100%
Substance: D3H44 heavy chain S186K (from UniProt P0DOX5 2-448)

% H2L2 Pairing (over all H2 species) [35]: 42.1%
Change in % H2L2 Pairing (over all H2 species) with respect to wild type [36]: 17%
Substance: Cetuximab heavy chain L124E_A139W

% H1L1 Pairing (over all H1 species) [37]: 100%
% H1L1 Pairing (over all H1 species) [38]: 100%
Change in % H1L1 Pairing (over all H1 species) with respect to wild type [39]: 38.1%
Change in % H1L1 Pairing (over all H1 species) with respect to wild type [40]: 38.1%
% H1L1 Pairing (over all H1 species) [41]: 100%
% H1L1 Pairing (over all H1 species) [42]: 100%
Substance: D3H44 heavy chain L143E_K145T_Q179E (from UniProt P0DOX5 2-448)

% H2L2 Pairing (over all H2 species) [43]: 58.1%
Change in % H2L2 Pairing (over all H2 species) with respect to wild type [44]: 33%
Substance: Cetuximab heavy chain L124W_L143E_K145T_Q179E

Change in % H1L1 Pairing (over all H1 species) with respect to wild type [45]: 6%
% H1L1 Pairing (over all H1 species) [46]: 100%
Substance: trastuzumab full-length heavy chain of SMCA design 9820-9823_1 (trastuzumab/cetuximab bispecific system), Q39R_H172R_Q179K (from UniProt P0DOX5 2-448)

— patent US11306156
